The subject of this data set is Escherichia coli TOP10. The data set is described as follows: shrunken log2 fold change of peptide-encoding DNA abundance (4.5 h post-induction vs induction); higher = less antimicrobial activity (less host growth inhibition). Conditions: time post-induction: 4.5 h; library: site-saturation at positions 5, 18, 19, 20.
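Note: peptides expressed intracellularly from a pBAD plasmid library in pooled LB shake-flask culture, induced with 0.3% L-arabinose, DNA abundance read by NGS, three biological replicates, DESeq2 with apeglm shrinkage.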

As to RRIRQRPPRLPRPRPRPPPHPRP, the “shrunken log2 fold change” value is 0.737.

Regarding RRIRGRPPRLPRPRPRPVAVPRP, the “shrunken log2 fold change” value stood at 0.912. Regarding RRIRSRPPRLPRPRPRPNKSPRP, the “shrunken log2 fold change” value was -0.266.

Regarding RRIRPRPPRLPRPRPRPMKRPRP, the “shrunken log2 fold change” value came out at 0.153.

On to RRIRGRPPRLPRPRPRPGNKPRP, for which the “shrunken log2 fold change” value is -0.216. For RRIRHRPPRLPRPRPRPDKRPRP, the “shrunken log2 fold change” value was -0.0145. The value for RRIRLRPPRLPRPRPRPPWDPRP was 0.344. In the case of RRIRFRPPRLPRPRPRPGCCPRP, the “shrunken log2 fold change” value is 0.258. Take RRIRCRPPRLPRPRPRPGELPRP: the “shrunken log2 fold change” value amounted to 0.139. Next, RRIRYRPPRLPRPRPRPGWCPRP: -0.128; RRIRQRPPRLPRPRPRPMFMPRP: -0.0688. Next, RRIRCRPPRLPRPRPRPCRVPRP: -0.438. The value for RRIRMRPPRLPRPRPRPETWPRP was 1.44; that for RRIRFRPPRLPRPRPRPPQGPRP was 0.171; that for RRIRVRPPRLPRPRPRPWPDPRP was 0.033.

In the case of RRIRTRPPRLPRPRPRPIPWPRP, the “shrunken log2 fold change” value was -0.0529.

On to RRIRTRPPRLPRPRPRPGYIPRP, for which the “shrunken log2 fold change” value was -0.288.

On to RRIRQRPPRLPRPRPRPRDIPRP, for which the “shrunken log2 fold change” value was determined as 0.0657. For RRIRHRPPRLPRPRPRPNNGPRP, the “shrunken log2 fold change” value was 0.0142. As for RRIRRRPPRLPRPRPRPNMWPRP, the “shrunken log2 fold change” value is -0.253. With RRIRIRPPRLPRPRPRPDRLPRP, the “shrunken log2 fold change” value was -0.453.

For RRIRCRPPRLPRPRPRPVHRPRP, the “shrunken log2 fold change” value was -0.319. Next, RRIRDRPPRLPRPRPRPKQSPRP: 0.00791; RRIRHRPPRLPRPRPRPIYDPRP: -0.436. Next, RRIRNRPPRLPRPRPRPLISPRP: 3.16; RRIRYRPPRLPRPRPRPMWHPRP: -0.156. Turning to RRIRMRPPRLPRPRPRPYTFPRP, the “shrunken log2 fold change” value was -0.0434. Next, RRIRKRPPRLPRPRPRPLHCPRP: 0.0213. For RRIRQRPPRLPRPRPRPYMHPRP, the “shrunken log2 fold change” value is -0.512. For the sequence RRIRNRPPRLPRPRPRPVRLPRP, the “shrunken log2 fold change” value came out at 0.0814. With RRIRARPPRLPRPRPRPMKYPRP, the “shrunken log2 fold change” value is -0.157. Next, RRIRDRPPRLPRPRPRPSTQPRP: 0.445; RRIRFRPPRLPRPRPRPLWQPRP: -0.308. Next, RRIRLRPPRLPRPRPRPNRSPRP: -0.0205.

RRIRSRPPRLPRPRPRPHFIPRP: the “shrunken log2 fold change” value was -0.344. Consider RRIRQRPPRLPRPRPRPVYTPRP, for which the “shrunken log2 fold change” value was -0.143.

As to RRIRHRPPRLPRPRPRPIGSPRP, the “shrunken log2 fold change” value was -0.0183.

For the sequence RRIRIRPPRLPRPRPRPRAVPRP, the “shrunken log2 fold change” value amounted to 0.314. Take RRIRARPPRLPRPRPRPCLQPRP: the “shrunken log2 fold change” value was -0.0914. Next, RRIRKRPPRLPRPRPRPNCGPRP: 0.0611; RRIRGRPPRLPRPRPRPHHYPRP: -0.524. Turning to RRIRMRPPRLPRPRPRPHNAPRP, the “shrunken log2 fold change” value stood at 0.207. Next, RRIRMRPPRLPRPRPRPRFCPRP: 1.63; RRIRGRPPRLPRPRPRPYLRPRP: -0.0169; RRIRRRPPRLPRPRPRPWVAPRP: 0.219. As to RRIRARPPRLPRPRPRPTSTPRP, the “shrunken log2 fold change” value came to 0.0502. The value for RRIRNRPPRLPRPRPRPGDLPRP was 0.107; that for RRIRCRPPRLPRPRPRPRHNPRP was -0.374. With RRIRDRPPRLPRPRPRPFHQPRP, the “shrunken log2 fold change” value is -0.0388. Next, RRIRVRPPRLPRPRPRPCKRPRP: -0.196.

With RRIRLRPPRLPRPRPRPFGKPRP, the “shrunken log2 fold change” value was -0.168. With RRIRIRPPRLPRPRPRPFILPRP, the “shrunken log2 fold change” value is -0.275. The value for RRIRCRPPRLPRPRPRPVTNPRP was -0.0299; that for RRIRSRPPRLPRPRPRPGPRPRP was 0.659.

As to RRIRLRPPRLPRPRPRPMLEPRP, the “shrunken log2 fold change” value was 0.0968. As to RRIRVRPPRLPRPRPRPMLNPRP, the “shrunken log2 fold change” value was -0.135. For RRIRSRPPRLPRPRPRPSQNPRP, the “shrunken log2 fold change” value was -0.321. On to RRIRTRPPRLPRPRPRPPKEPRP, for which the “shrunken log2 fold change” value was -0.000639. The value for RRIRYRPPRLPRPRPRPFSRPRP was -0.625; that for RRIRGRPPRLPRPRPRPVGFPRP was 0.984; that for RRIRYRPPRLPRPRPRPCGGPRP was 0.00427.

On to RRIRLRPPRLPRPRPRPGDIPRP, for which the “shrunken log2 fold change” value is -0.385.

Regarding RRIRPRPPRLPRPRPRPACVPRP, the “shrunken log2 fold change” value was 0.26. Next, RRIRYRPPRLPRPRPRPHCMPRP: -0.161; RRIRGRPPRLPRPRPRPHVRPRP: 0.427; RRIRFRPPRLPRPRPRPCFFPRP: -0.378. Next, RRIRRRPPRLPRPRPRPCQWPRP: 0.107; RRIRPRPPRLPRPRPRPCSDPRP: -0.131. Regarding RRIRDRPPRLPRPRPRPGTDPRP, the “shrunken log2 fold change” value was 0.341. The value for RRIRQRPPRLPRPRPRPASCPRP was 0.182; that for RRIRIRPPRLPRPRPRPMTDPRP was -0.91; that for RRIRHRPPRLPRPRPRPDAPPRP was 2.03.

In the case of RRIRFRPPRLPRPRPRPVDYPRP, the “shrunken log2 fold change” value was -0.031.

Regarding RRIRNRPPRLPRPRPRPLVAPRP, the “shrunken log2 fold change” value was -0.124.

For RRIRKRPPRLPRPRPRPAKWPRP, the “shrunken log2 fold change” value turned out to be 0.26. The value for RRIRMRPPRLPRPRPRPMRYPRP was -0.0558. Next, RRIRWRPPRLPRPRPRPMVLPRP: -0.243; RRIRGRPPRLPRPRPRPNLDPRP: 0.265. As to RRIRPRPPRLPRPRPRPQGLPRP, the “shrunken log2 fold change” value is -0.122. Turning to RRIRKRPPRLPRPRPRPPECPRP, the “shrunken log2 fold change” value was determined as 0.0514.

As to RRIRRRPPRLPRPRPRPQMDPRP, the “shrunken log2 fold change” value was -0.0632.

Turning to RRIRDRPPRLPRPRPRPGLKPRP, the “shrunken log2 fold change” value was -0.0696.

RRIRVRPPRLPRPRPRPTCNPRP: the “shrunken log2 fold change” value was -0.233.

Consider RRIRGRPPRLPRPRPRPGHVPRP, for which the “shrunken log2 fold change” value amounted to 0.204. As for RRIRHRPPRLPRPRPRPIWYPRP, the “shrunken log2 fold change” value is -0.75. The value for RRIRCRPPRLPRPRPRPHWEPRP was -0.132.

Regarding RRIRRRPPRLPRPRPRPQDRPRP, the “shrunken log2 fold change” value stood at 0.0852. Next, RRIRYRPPRLPRPRPRPTPVPRP: -0.0457; RRIRRRPPRLPRPRPRPEMVPRP: 0.0411. In the case of RRIRDRPPRLPRPRPRPPYEPRP, the “shrunken log2 fold change” value was -0.0831. For the sequence RRIRYRPPRLPRPRPRPDDFPRP, the “shrunken log2 fold change” value is -0.0153.

Consider RRIRGRPPRLPRPRPRPTGPPRP, for which the “shrunken log2 fold change” value was 0.692. The value for RRIRYRPPRLPRPRPRPADSPRP was -0.212. For the sequence RRIRVRPPRLPRPRPRPIIHPRP, the “shrunken log2 fold change” value is -0.809.

Turning to RRIRGRPPRLPRPRPRPRMWPRP, the “shrunken log2 fold change” value turned out to be 0.223.

Regarding RRIRQRPPRLPRPRPRPYYHPRP, the “shrunken log2 fold change” value is -0.413. Next, RRIRLRPPRLPRPRPRPVERPRP: -0.0146.

As for RRIRKRPPRLPRPRPRPVFDPRP, the “shrunken log2 fold change” value worked out at 0.171. In the case of RRIRMRPPRLPRPRPRPNCNPRP, the “shrunken log2 fold change” value was found to be 0.675. RRIRKRPPRLPRPRPRPDQTPRP: the “shrunken log2 fold change” value was -0.0185. Next, RRIRQRPPRLPRPRPRPRHTPRP: -0.147; RRIRFRPPRLPRPRPRPCPYPRP: -0.261. Next, RRIRRRPPRLPRPRPRPPEEPRP: 1.37; RRIRPRPPRLPRPRPRPTPIPRP: 0.336. Take RRIRHRPPRLPRPRPRPVLNPRP: the “shrunken log2 fold change” value is 0.157. The value for RRIRRRPPRLPRPRPRPIWFPRP was 0.0342; that for RRIRIRPPRLPRPRPRPLGFPRP was -0.393.

On to RRIRRRPPRLPRPRPRPIVPPRP, for which the “shrunken log2 fold change” value came out at 0.605.

Consider RRIRRRPPRLPRPRPRPPRMPRP, for which the “shrunken log2 fold change” value was 0.94. For RRIRDRPPRLPRPRPRPTNMPRP, the “shrunken log2 fold change” value is -0.00949. As for RRIRIRPPRLPRPRPRPLSKPRP, the “shrunken log2 fold change” value was -0.901.

Regarding RRIRFRPPRLPRPRPRPTNPPRP, the “shrunken log2 fold change” value is -0.0887.

On to RRIRSRPPRLPRPRPRPVSKPRP, for which the “shrunken log2 fold change” value turned out to be 0.236.

As to RRIRSRPPRLPRPRPRPKDDPRP, the “shrunken log2 fold change” value is 0.0557. RRIRYRPPRLPRPRPRPHYMPRP: the “shrunken log2 fold change” value is -1.45.

On to RRIRSRPPRLPRPRPRPKMYPRP, for which the “shrunken log2 fold change” value is -0.0737. For the sequence RRIRERPPRLPRPRPRPVHTPRP, the “shrunken log2 fold change” value is -0.00346. The value for RRIRQRPPRLPRPRPRPSDWPRP was -0.131. As for RRIRWRPPRLPRPRPRPCCRPRP, the “shrunken log2 fold change” value worked out at 0.174. The value for RRIRYRPPRLPRPRPRPNIMPRP was -1.42; that for RRIRTRPPRLPRPRPRPHFSPRP was 0.0329.

As to RRIRIRPPRLPRPRPRPRTVPRP, the “shrunken log2 fold change” value was -0.197. For RRIRVRPPRLPRPRPRPLMKPRP, the “shrunken log2 fold change” value was -0.269.

Consider RRIRYRPPRLPRPRPRPIKLPRP, for which the “shrunken log2 fold change” value is -0.126.

Turning to RRIRCRPPRLPRPRPRPWVNPRP, the “shrunken log2 fold change” value was -0.19.

The values are drawn from the supplement of paper PMC9112550, “Optimization of the antimicrobial peptide Bac7 by deep mutational scanning” (BMC Biology, 2022).
